Data from patent US20230241243A1, “CARRIER PARTICLE-DRUG CONJUGATES, SELF-IMMOLATIVE LINKERS, AND USES THEREOF” (priority 2020, published 2023).

Assay: Drug-release assay of nanoparticle-conjugated linker-payloads under cleavage conditions (Cat-B, redox-responsive or pH-sensitive cleaving study), RP-HPLC
Type: in vitro ADME
Conditions: 37° C.; for % of Payload Release in 24 Hours Under Cleavage Conditions: linker-payload conjugated to DBCO-functionalized silica nanoparticle
Description: To assess the drug releasing profile of exemplary linker-drug conjugates, the linker-drug conjugates were each conjugated to a DBCO-functionalized ultrasmall silica nanoparticle via a click chemistry reaction between the azide groups on the linker-drug conjugate precursors and the dibenzocyclooctyne (DBCO) groups of the nanoparticles. The resulting drug-nanoparticle-conjugates were then incubated under the desired releasing conditions for release kinetics tests.
The amount of released drugs vs non-released drugs was measured using reverse phase HPLC by analyzing the area under curve (AUC) (FIG. 10A and FIG. 10B).
General Method: A Waters Xbridge Peptide BEH C18 column with 4.6 mm×50 mm dimensions, a particle size of 5 μm, and a pore size of 300 A was used (part number 186003622). Acetonitrile (VWR HiPerSolv Chromanorm, UHPLC Grade) was used as received without further preparation, […] trifluoroacetic acid in deionized water was prepared by adding 1 mL of trifluoroacetic acid (HPLC grade, Millipore-Sigma) into 999 mL 18.2 MΩ·cm deionized water that was generated using an IQ7000 Millipore deionized water system and passed through a 0.2 μm filter before use. The seal wash used for the system was composed of 90% 18.2 MΩ·cm deionized water and 10% methanol (HPLC grade, VWR). The injection needle was washed using a mixture of 25 vol % 18.2 MΩ·cm deionized water, 25 vol % acetonitrile, 25 vol % methanol, and 25 vol % 2-propanol. Samples were prepared in a concentration range of 0.25 to 2 μM and the injection volume ranges from 60 μL to 10 μL, respectively. Higher sample concentration can be used if detector signal is low. Vials used for all injections are fresh Waters Total Recovery vials with screw caps that have pre-slit PTFE septa (part number 186000385C).
Method for Protease-cleavable and Redox-responsive Linkers: Before any sample injections were started, the PDA lamp was turned on and allowed to warm up for at least 30 minutes. The system and column were equilibrated with 95% 0.01% TFA in deionized water, 5% acetonitrile for at least 10 minutes at a flow rate of 1.0 mL/min after the PDA lamp had warmed up. Two blank injections, with injection volumes of 10 μL containing only 18.2 MΩ·cm deionized water, were performed before the injection of any samples for analysis. The gradient used to elute protease-cleavable and redox-sensitive linkers conjugated to hybrid silica nanoparticles, and their components began at 95% 0.01% TFA in deionized water and 5% acetonitrile and linearly changed to 15% 0.01% TFA in deionized water, 85% acetonitrile over 8 minutes. Acetonitrile composition was increased to 95% over an additional minute and held at 95% for an additional 2 minutes to ensure that any strongly retained compounds are eluted. The composition of the solvent was then changed back to the starting composition of the gradient over an additional minute and allowed to equilibrate for 3 minutes before another injection began. Between sample injections a blank injection was run to ensure that no carryover occurred.
Method for pH-sensitive Linkers: Before any sample injections were started, the PDA lamp was turned on and allowed to warm up for at least 30 minutes. A gradient of pure deionized water and acetonitrile was used, all other consumables including column and vials were the same as for the method to purify Cat-B sensitive and redox-responsive linkers elaborated on above. Briefly the gradient composition began at 95% deionized water and 5% acetonitrile at a flow rate of 1.0 mL/min (not changed throughout the method). The composition was changed from this starting composition to 15% deionized water and 85% acetonitrile over a 12-minute period, during which the retained drug-linkers, released drug, free drug linker, and any other impurities eluted. At the 12-minute mark the composition was rapidly changed to 5% deionized water and 95% acetonitrile over the course of one minute. […]

SMILES	% of Payload Release in 24 Hours Under Cleavage Conditions	% of Payload Release Under Cleavage Conditions (linker-payload conjugated to nanoparticle, @ 3 Hrs)
CCc1c2c(nc3ccc(OCCCNC(=O)OCc4ccc(NC(=O)[C@H](CCCCN)NC(=O)[C@@H](NC(=O)CCOCCOCCOCCOCCOCCOCCOCCOCCOCCN=[N+]=[N-])C(C)C)cc4)cc13)-c1cc3c(c(=O)n1C2)COC(=O)[C@]3(O)CC [Example 31, 4-((32S,35S)-35-(4-aminobutyl)-1-azido-32-isopropyl-30,33-dioxo-3,6,9,12,15,18,21,24,27-nonaoxa-31,34-diazahexatriacontan-36-amido)benzyl (3-(((S)-4,11-diethyl-4-hydroxy-3,14-dioxo-3,4,12,14-tetrahydro-1H-pyrano[3′,4′:6,7]indolizino[1,2-b]quinolin-9-yl)oxy)propyl)carbamate]	+ (‘+’ indicates 5-25% release)	–
CC[C@@]1(O)C(=O)OCc2c1cc1n(c2=O)Cc2c-1nc1cc(F)c(C)c3c1c2[C@@H](NC(=O)C(O)c1ccc(NC(=O)[C@H](CCCCN)NC(=O)[C@H](Cc2ccccc2)NC(=O)CCOCCOCCOCCOCCOCCOCCN=[N+]=[N-])cc1)CC3 (single isomer, unassigned) [Example 29-Peak 2]	++ (‘++’ indicates 26-50% release)	–
CCc1c2c(nc3ccc(OCCCSSC(C)(C)CNC(=O)CCOCCOCCOCCOCCOCCN=[N+]=[N-])cc13)-c1cc3c(c(=O)n1C2)COC(=O)[C@]3(O)CC [Example 54, (S)-1-azido-N-(2-((3-((4,11-diethyl-4-hydroxy-3,14-dioxo-3,4,12,14-tetrahydro-1H-pyrano[3′,4′:6,7]indolizino[1,2-b]quinolin-9-yl)oxy)propyl)disulfanyl)-2-methylpropyl)-3,6,9,12,15-pentaoxaoctadecan-18-amide]	+ (‘+’ indicates 5-25% release)	–
CCc1c2c(nc3ccc(OC(C(=O)N(C)C)c4ccc(NC(=O)[C@H](CCCNC(N)=O)NC(=O)[C@@H](NC(=O)CCOCCOCCOCCOCCOCCOCCOCCOCCOCCOCCOCCN=[N+]=[N-])C(C)C)cc4)cc13)-c1cc3c(c(=O)n1C2)COC(=O)[C@]3(O)CC (stereo partly drawn) [Example 20, 1-azido-N-((2S)-1-(((2S)-1-((4-(1-(((s)-4,11-diethyl-4-hydroxy-3,14-dioxo-3,4,12,14-tetrahydro-1H-pyrano[3′,4′:6,7]indolizino[1,2-b]quinolin-9-yl)oxy)-2-(dimethylamino)-2-oxoethyl)phenyl)amino)-1-oxo-5-ureidopentan-2-yl)amino)-3-methyl-1-oxobutan-2-yl)-3,6,9,12,15,18,21,24,27,30,33-undecaoxahexatriacontan-36-amide]	+ (‘+’ indicates 5-25% release)	–
CC[C@@]1(O)C(=O)OCc2c1cc1n(c2=O)Cc2c-1nc1cc(F)c(C)c3c1c2[C@@H](NC(=O)[C@@H](CCCNC(N)=O)NC(=O)[C@@H](NC(=O)CCOCCOCCOCCOCCOCCOCCOCCOCCOCCOCCOCCN=[N+]=[N-])C(C)C)CC3 [Example 50, 1-azido-N-((S)-1-(((R)-1-(((1S,9S)-9-ethyl-5-fluoro-9-hydroxy-4-methyl-10,13-dioxo-2,3,9,10,13,15-hexahydro-1H,12H-benzo[de]pyrano[3′,4′:6,7]indolizino[1,2-b]quinolin-1-yl)amino)-1-oxo-5-ureidopentan-2-yl)amino)-3-methyl-1-oxobutan-2-yl)-3,6,9,12,15,18,21,24,27,30,33-undecaoxahexatriacontan-36-amide]	+ (‘+’ indicates 5-25% release)	–
CCc1c2c(nc3ccc(OCCCNC(=O)OCc4ccc(NC(=O)[C@H](CCCNC(N)=O)NC(=O)[C@@H](NC(=O)CCOCCOCCOCCOCCOCCOCCOCCOCCOCCOCCOCCN=[N+]=[N-])C(C)C)cc4)cc13)-c1cc3c(c(=O)n1C2)COC(=O)[C@]3(O)CC [Example 17, 4-((38S,41S)-1-azido-38-isopropyl-36,39-dioxo-41-(3-ureidopropyl)-3,6,9,12,15,18,21,24,27,30,33-undecaoxa-37,40-diazadotetracontan-42-amido)benzyl (3-(((S)-4,11-diethyl-4-hydroxy-3,14-dioxo-3,4,12,14-tetrahydro-1H-pyrano[3′,4′:6,7]indolizino[1,2-b]quinolin-9-yl)oxy)propyl)carbamate]	++ (‘++’ indicates 26-50% release)	–
CCc1c2c(nc3ccc(OCCCNC(=O)OCc4ccc(SSC(C)(C)CNC(=O)CCOCCOCCOCCOCCOCCOCCOCCOCCOCCN=[N+]=[N-])cc4)cc13)-c1cc3c(c(=O)n1C2)COC(=O)[C@]3(O)CC [Example 59, 4-((1-azido-33-methyl-30-oxo-3,6,9,12,15,18,21,24,27-nonaoxa-31-azatetratriacontan-33-yl)disulfanyl)benzyl (S)-(3-((4,11-diethyl-4-hydroxy-3,14-dioxo-3,4,12,14-tetrahydro-1H-pyrano[3′,4′:6,7]indolizino[1,2-b]quinolin-9-yl)oxy)propyl)carbamate]	+++ (‘+++’ indicates 51-75% release)	–
CC[C@@]1(O)C(=O)OCc2c1cc1n(c2=O)Cc2c-1nc1cc(F)c(C)c3c1c2[C@@H](NC(=O)CSSC(C)(C)CNC(=O)CCOCCOCCOCCOCCOCCOCCOCCOCCOCCOCCOCCOCCN=[N+]=[N-])CC3 [Example 60, 1-azido-N-(2-((2-(((1S,9S)-9-ethyl-5-fluoro-9-hydroxy-4-methyl-10,13-dioxo-2,3,9,10,13,15-hexahydro-1H,12H-benzo[de]pyrano[3′,4′:6,7]indolizino[1,2-b]quinolin-1-yl)amino)-2-oxoethyl)disulfaneyl)-2-methylpropyl)-3,6,9,12,15,18,21,24,27,30,33,36-dodecaoxanonatriacontan-39-amide]	+++ (‘+++’ indicates 51-75% release)	–
CCc1c2c(nc3ccc(OCC(=O)N/N=C(/C)c4ccc(OCCOCCOCCOCCOCCOCCN=[N+]=[N-])cc4)cc13)-c1cc3c(c(=O)n1C2)COC(=O)[C@]3(O)CC [Example 64, (S,Z)-N′-(1-(4-((17-azido-3,6,9,12,15-pentaoxaheptadecyl)oxy)phenyl)ethylidene)-2-((4,11-diethyl-4-hydroxy-3,14-dioxo-3,4,12,14-tetrahydro-1H-pyrano[3′,4′:6,7]indolizino[1,2-b]quinolin-9-yl)oxy)acetohydrazide]	–	+++ @ 3 Hrs (‘+++’ indicates 51-75% release)
CCc1c2c(nc3ccc(OCc4ccc(NC(=O)[C@H](CCCNC(N)=O)NC(=O)[C@@H](NC(=O)CCOCCOCCOCCOCCOCCOCCOCCOCCOCCN=[N+]=[N-])C(C)C)cc4)cc13)-c1cc3c(c(=O)n1C2)COC(=O)[C@]3(O)CC [Example 48, 1-azido-N-((S)-1-(((S)-1-((4-((((S)-4,11-diethyl-4-hydroxy-3,14-dioxo-3,4,12,14-tetrahydro-1H-pyrano[3′,4′:6,7]indolizino[1,2-b]quinolin-9-yl)oxy)methyl)phenyl)amino)-1-oxo-5-ureidopentan-2-yl)amino)-3-methyl-1-oxobutan-2-yl)-3,6,9,12,15,18,21,24,27-nonaoxatriacontan-30-amide]	+ (‘+’ indicates 5-25% release)	–
CCc1c2c(nc3ccc(OCCCNC(=O)OCCSSCCNC(=O)CCOCCOCCOCCOCCOCCOCCOCCOCCOCCN=[N+]=[N-])cc13)-c1cc3c(c(=O)n1C2)COC(=O)[C@]3(O)CC [Example 61, 37-Azido-8-oxo-11,14,17,20,23,26,29,32,35-nonaoxa-3,4-dithia-7-azaheptatriacontyl (S)-(3-((4,11-diethyl-4-hydroxy-3,14-dioxo-3,4,12,14-tetrahydro-1H-pyrano[3′,4′:6,7]indolizino[1,2-b]quinolin-9-yl)oxy)propyl)carbamate]	+ (‘+’ indicates 5-25% release)	–
